Results published in patent US6509443.

T1: IGF-I L5A on phage (G1S-A70V background, gene III fusion) (human; bacteriophage M13)
T1 construct: monovalent on M13 phage; not shown: M13 gene III fragment (residues 249-406) and the junction after residue 70
T1 chain: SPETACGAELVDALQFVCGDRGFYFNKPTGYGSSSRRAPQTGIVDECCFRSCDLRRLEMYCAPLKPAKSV

T2: IGF-I T4A on phage (G1S-A70V background, gene III fusion) (human; bacteriophage M13)
T2 construct: monovalent on M13 phage; not shown: M13 gene III fragment (residues 249-406) and the junction after residue 70
T2 chain: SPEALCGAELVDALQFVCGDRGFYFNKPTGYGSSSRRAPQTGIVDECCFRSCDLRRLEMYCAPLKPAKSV

T3: IGF-I F49A on phage (G1S-A70V background, gene III fusion) (human; bacteriophage M13)
T3 chain: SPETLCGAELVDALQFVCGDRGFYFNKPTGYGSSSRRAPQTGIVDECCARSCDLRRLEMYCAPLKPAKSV

B1: IGF-I E3A on phage (G1S-A70V background, gene III fusion) (ligand)
chain: SPATLCGAELVDALQFVCGDRGFYFNKPTGYGSSSRRAPQTGIVDECCFRSCDLRRLEMYCAPLKPAKSV
notes: monovalent on M13 phage; not shown: M13 gene III fragment (residues 249-406) and the junction after residue 70
B2: human IGFBP-1 (other, UniProt P08833 26-259, looked up)
chain: APWQCAPCSAEKLALCPPVSASCSEVTRSAGCGCCPMCALPLGAACGVATARCARGLSCRALPGEQQPLHALTRGQGACVQESDASAPHAAEAGSPESPESTEITEEELLDNFHLMAPSEEDHSILWDAISTYDGSKALHVTNIKKWKEPCRIELYRVVESLAKAQETSGEEISKFYLPNCNKNGFYHSRQCETSMDGEAGLCWCVYPWNGKRIPGSPEIRGDPNCQIYFNVQN
notes: mature

How the values were obtained:
[1] = biological target: B2; assay: competitive phage ELISA
Description: (§1) Phage particles were harvested and resuspended in PBS buffer as described in Lowman, H. B., "Phage Display of Peptide Libraries on Protein Scaffolds," in Cabilly, S. (ed.), *Combinatorial Peptide Library Protocols* (Humana Press Inc.: Totowa, N.J., 1998), pp. 249–264. Then phage concentrations were normalized to yield a maximal ELISA signal of 0.2–0.4 for each mutant (Lowman, in Cabilly, S. (ed.), supra). Threefold serial dilutions of soluble competitor were prepared on non-absorbent microtiter plates (Nunc, F, 96 wells) with binding buffer (0.5% TWEEN™ 20/PBS) containing phage at the previously-determined concentrations. […] After blocking, the plates containing immobilized target were washed with 0.05% TWEEN™/PBS buffer and subsequently incubated with 80 μl/well of the premixed phage-competitor solutions for 1 hour at room temperature. […] Numbers in Table I represent mean±standard deviation of individually assessed $IC50$ values.
(§2) At least two different clones of every mutant were tested.

[2] = biological target: T4, recombinant human IGFBP-3 (human, UniProt P17936 28-291); assay: competitive phage ELISA
T4 construct: mature
T4 sequence (P17936 28-291): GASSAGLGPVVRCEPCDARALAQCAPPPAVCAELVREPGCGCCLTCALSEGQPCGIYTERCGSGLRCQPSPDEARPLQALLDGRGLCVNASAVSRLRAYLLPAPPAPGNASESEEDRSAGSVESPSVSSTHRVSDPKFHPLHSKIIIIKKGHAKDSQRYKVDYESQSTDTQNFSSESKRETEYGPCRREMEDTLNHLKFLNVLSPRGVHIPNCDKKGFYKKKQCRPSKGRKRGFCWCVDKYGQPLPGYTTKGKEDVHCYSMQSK
Description: as §1, §2

[3] = biological target: B1; assay: competitive phage ELISA, soluble vs coated IGFBP-1
Description: as §1, §2

[4] = biological target: T5, IGF-I S69A on phage (G1S-A70V background, gene III fusion) (human; bacteriophage M13); assay: competitive phage ELISA, soluble vs coated IGFBP-1
T5 construct: monovalent on M13 phage; not shown: M13 gene III fragment (residues 249-406) and the junction after residue 70
Description: as §1, §2

[5] = biological target: T1, IGF-I L5A on phage (G1S-A70V …); assay: competitive phage ELISA, soluble vs coated IGFBP-1
Description: as §1, §2

[6] = biological target: T6, IGF-I S1G on phage (single mutant of G1S-A70V, gene III fusion) (human; bacteriophage M13, UniProt P05019 49-117); assay: competitive phage ELISA, soluble vs coated IGFBP-1
T6 construct: monovalent on M13 phage; not shown: M13 gene III fragment (residues 249-406) and the junction after residue 70
Description: as §1, §2

[7] = biological target: T7, IGF-I V70A on phage (single mutant of G1S-A70V, gene III fusion) (human; bacteriophage M13); assay: competitive phage ELISA, soluble vs coated IGFBP-1
T7 construct: monovalent on M13 phage; not shown: M13 gene III fragment (residues 249-406) and the junction after residue 70
Description: as §1, §2

[8] = biological target: T2, IGF-I T4A on phage (G1S-A70V …); assay: competitive phage ELISA, soluble vs coated IGFBP-1
Description: as §1, §2

[9] = biological target: T3, IGF-I F49A on phage (G1S-A70V …); assay: phage ELISA on coated IGFBP-3, soluble IGFBP-1 as competitor (FIG. 3A); details: remark: other sources report otherwise

Binder | binding result [1] | binding result [2] | IC50 [3] | IC50 [4] | IC50 [5] | IC50 [6] | IC50 [7] | IC50 [8] | shift of the binding curve against G1S-A70V phage [9]
B1 | binds | binds |  |  |  |  |  |  | 
B2 |  |  | 278 nM | 12.8 nM | 55.3 nM | 11.2 nM | 19.1 nM | 19.4 nM | > 100 fold
